The values below come from publication PMC11393876 (Cancers, 2024).

Common to all, as to settings: both partners purified
The target in experiment [1] is T1, Biotin-hPD-1-mIgG Fc (human, UniProt Q15116, biotin).
T1 construct: PD-1, human; also called hPD-1-mFc; source: PharmaEssentia, purified fusion protein
Nature of the experiment: ELISA; competitive ELISA; human PD-L2 coated; Biotin-hPD-1-mIgG Fc at 0.025 μg/mL as binder; serial dilutions of P1801 from 0.5 μg/mL as competitor; 25 °C, 2 h. For orientation: ELISA stands for enzyme-linked immunosorbent assay.

Experiment [2] has as its target T1, Biotin-hPD-1-mIgG Fc. Nature of the experiment: ELISA; competitive ELISA; human PD-L1 coated; Biotin-hPD-1-mIgG Fc at 0.025 μg/mL as binder; serial dilutions of P1801 from 0.5 μg/mL as competitor; 25 °C, 2 h.
The target in experiment [3] is T2, human CTLA-4 (Homo sapiens, UniProt P16410).
T2 construct: CTLA-4, human; source: bought: Sino Biological (11159-H08H)
T2 sequence (P16410 36-161): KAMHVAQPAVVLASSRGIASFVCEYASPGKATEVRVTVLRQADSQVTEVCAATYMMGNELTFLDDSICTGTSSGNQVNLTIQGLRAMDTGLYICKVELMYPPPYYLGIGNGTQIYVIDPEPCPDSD
Put plainly: ELISA; direct binding ELISA; antigens coated overnight, blocked with 1% BSA 2 h; P1801 incubated at 25 °C for 1 h; detected with peroxidase goat anti-hIgG Fc.

Experiment [4] concerns the target T3, cynomolgus PD-1 (Macaca fascicularis (cynomolgus), UniProt B0LAJ3).
T3 construct: PD-1, cynomolgus monkey, GenBank NP_001271065.1; source: bought: Sino Biological (90311-C08H)
The description is as above.

In experiment [5] the target is T4, human PD-L1 (human, UniProt Q9NZQ7).
T4 construct: programmed death-ligand 1 (PD-L1), human; also called programmed death-ligand 1; source: bought: Sino Biological (10084-H08H)
T4 sequence (Q9NZQ7 19-238): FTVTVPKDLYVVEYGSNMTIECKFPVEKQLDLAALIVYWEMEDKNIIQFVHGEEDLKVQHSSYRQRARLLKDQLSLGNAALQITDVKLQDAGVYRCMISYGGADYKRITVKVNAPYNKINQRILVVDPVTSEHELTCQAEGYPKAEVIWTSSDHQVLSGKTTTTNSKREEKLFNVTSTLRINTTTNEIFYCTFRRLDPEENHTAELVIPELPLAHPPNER
The experiment is described as above.

For experiment [6], the target named is T5, human CD28 (Homo sapiens, UniProt P10747).
T5 construct: CD28, human; source: bought: Sino Biological (11524-HCCH)
T5 sequence (P10747 19-152): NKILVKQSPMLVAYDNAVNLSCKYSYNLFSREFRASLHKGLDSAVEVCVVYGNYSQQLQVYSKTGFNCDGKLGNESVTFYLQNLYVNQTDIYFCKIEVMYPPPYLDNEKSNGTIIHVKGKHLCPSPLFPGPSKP
Described as above.

In experiment [7] the target is T6, mouse PD-1 (Mus musculus, UniProt Q02242).
T6 construct: PD-1, mouse; source: bought: Sino Biological (50124-M08H)
T6 sequence (Q02242 25-169): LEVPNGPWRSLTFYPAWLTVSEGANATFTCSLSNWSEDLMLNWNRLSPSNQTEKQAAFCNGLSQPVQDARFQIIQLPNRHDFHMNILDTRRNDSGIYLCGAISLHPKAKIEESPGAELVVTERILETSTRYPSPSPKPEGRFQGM
Described as above.

In experiment [8] the target is T7, human PD-L2 (human, UniProt Q9BQ51).
T7 construct: PD-L2, human; source: bought: Sino Biological (10292-H08H)
T7 sequence (Q9BQ51 20-220): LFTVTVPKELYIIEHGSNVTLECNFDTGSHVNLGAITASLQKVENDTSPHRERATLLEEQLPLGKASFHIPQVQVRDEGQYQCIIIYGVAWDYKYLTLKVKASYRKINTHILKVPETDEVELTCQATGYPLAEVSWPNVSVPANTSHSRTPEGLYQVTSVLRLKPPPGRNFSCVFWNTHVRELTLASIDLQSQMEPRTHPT
The experiment is described as above.

The target of experiment [9] is T8, human PD-1 (Homo sapiens, UniProt Q15116).
T8 construct: programmed cell death 1 (PD-1), human; also called PD-1/His antigen; human PD-1 proteins; source: bought: Sino Biological (HPLC-10377-H08H) for the ELISA
T8 sequence (Q15116 25-170): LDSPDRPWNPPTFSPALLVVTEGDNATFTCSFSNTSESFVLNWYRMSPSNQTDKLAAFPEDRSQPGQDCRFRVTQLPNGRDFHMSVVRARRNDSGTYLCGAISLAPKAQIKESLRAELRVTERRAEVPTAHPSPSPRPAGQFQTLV
Described as above.

The target in experiment [10] is T8, human PD-1. Nature of the experiment: SPR; P1801 (2 µg/mL) captured on the surface; human PD-1 proteins injected; 25 °C; HBS-EP (10 mM HEPES, 150 mM NaCl, 3 mM EDTA, 0.05% Tween 20, pH 7.4). (In general: In SPR one partner is held on a chip, and binding of the other changes the refractive index at the surface.)

T1 sequence (Q15116 25-170): as above

B1: P1801 (antibody, V domains shown)
VH: EVQLVESGGGLVQPGGSLRLSCAASGFTFSSYDMSWVRQAPGKGLEWVATITGGGSYTYYPDSVKGRFTISRDNAKNSLYLQMNSLRAEDTAVYYCASPYLNYFDYWGQGTLVTVSS
VL: EIVLTQSPATLSLSPGERATLSCRASQSISNNLHWYQQKPGQAPRLLIYYASQSISGIPARFSGSGSGTDFTLTISSLEPEDFAVYYCQQSNSWPLTFGQGTKLEIK
notes: 464 residues; mouse CDR1-3 in a human IgG4 framework with the S228P mutation; kappa light chain, 234 residues; mouse CDRs in a human framework; IgG4 kappa, S228P; humanized from murine clone PD-1RB-M59; The printed lengths (464 and 234 residues) may include signal peptides; Molecular weight 146,799 Da; also called anti-human PD-1 IgG4 humanized monoclonal antibody; source: CHO cell expression …
Consider B1, for which the IC50 in [1] worked out at 900 pM; in [2] it was 570 pM. For the same molecule, the binding result in experiment [3], in experiment [5], in experiment [6], in [7] and in experiment [8] was “no binding” in each case. For the same molecule, the EC50 in experiment [4] is 440 pM; in [9], 570 pM. For the same molecule, the affinity in experiment [10], expressed as Kd, was 2500 pM.

By IC50 is commonly meant the midpoint of a concentration-inhibition curve. A higher IC50 goes with weaker potency. The term EC50 denotes the concentration giving half of the maximal effect. In general, Kd refers to the equilibrium constant for the complex coming apart. Low readings indicate higher affinity, high ones lower affinity.
